Where no end group is shown, it is not given here. The star is where a group is joined. Dnp = O=[N+]([O-])c1ccc(*)c([N+](=O)[O-])c1; 2Abz = Nc1ccccc1C(=O)O
Molecular target: Human plasma purified α-thrombin (human, UniProt P00734 328-622)
Experiment: cell-based or functional assay

K(Dnp)DFLAEGGGVRIVGGK(2Abz) [Lys(Dnp)-DFLAEGGGVRIVGG-Lys(Abz)] was tested, and the “Fold-Improved (FpA)” value was 1 fold and the “Fold-Improved (PAR-1)” value was 0.1 fold.

From US20160024487A1 (Novo Nordisk, published 2016)
